Results as given in paper doi:10.1101/2023.01.23.525191, “Mechanism of an alternative splicing switch mediated by cell-specific and general splicing regulators” (bioRxiv, 2023).

Columns and labels:
[1] = target: the molecule itself; experiment: AUC; sedimentation velocity, 500 mM KCl, 20 mM HEPES, 1 mM TCEP, pH 7.9, 20 °C; FL 0.46 and ΔC20 0.57 mg/ml as printed; dimers and higher-order oligomers
[2] = target: the molecule itself; experiment: SEC; size exclusion chromatography of recombinant untagged protein; dimer and higher-order assemblies

B1: recombinant untagged full length rat RBPMS-A (natural protein)
chain: not shown
notes: RBPMS isoform A (RBPMS-A), rat, cDNA NCBI XM_006253240.2, full length open reading frame; it may be the rat protein; Exists as a mixture of dimers and higher-order oligomers; also called FL RBPMS; FL; source: E. coli BL21 (DE3), purified (Histrap, TEV cleavage, mono Q, Superdex 200); not shown: His6, N-terminal, cleaved
stoichiometry N [1]: ~21
stoichiometry N [2]: 2
